# doi:10.1101/2020.07.11.198572
# What was measured:
# [1] = molecular target: EGFR-GFP (GFP-labelled epidermal growth factor receptor) in SW620-EGFR-GFP cells (human) (UniProt P00533)
# [2] = molecular target: EGFR-GFP (GFP-labelled epidermal growth factor receptor) in SW620-EGFR-GFP cells (human) (UniProt P00533); remark: listed apart in the source
substance,measurement,setting,value
EGF-TMR (epidermal growth factor conjugated to tetramethylrhodamine) (ligand),percent of EGFR foci colocalized with EGF (3-60 min),[1],40%
same,percent of all tracked EGFR molecules in foci colocalized with EGF,[1],64%
same,mean relative stoichiometry EGFR:EGF,[2],4.2 EGFR:EGF
same,stoichiometry N,[2],1.9 EGFR:EGF
